# From paper PMC2891831, “Insight into the Mechanisms of Adenovirus Capsid Disassembly from Studies of Defensin Neutralization” (PLoS Pathogens, 2010)
# “Also recorded” adds a separate entry of the source. Where two headings read alike, the source gives them in different places.
# B1: HD5: human alpha-defensin; synthetic, obtained from Peptides International; three disulfide bonds (PDB 1ZMP) (peptide, UniProt Q01523 20-94, looked up)
# Defensin alpha 5: ESLQERADEATTQKQSGEDNQDLAISFAGNGLSALRTSGSQARATCYCRTGRCATRESLSGVCEISGRLYRLCCR
# modifications: Defensin-5
# Tests used:
# HAdV-5 capsid = assay: Virus-defensin equilibrium-binding assay, HAdV-5; parameters: species or system human adenovirus
# Experimental: Neutralization of HAdV by α-defensins is dependent upon binding to the virus capsid, which can be disrupted in the presence of elevated concentrations of sodium chloride. To perform a more quantitative assessment of this interaction, increasing concentrations of HD5 were incubated with Ad5.eGFP to allow binding, and the virus/HD5 complex was then separated from unbound HD5 on a nycodenz gradient. Bound defensin was visualized after SDS-PAGE using a sensitive fluorescent total protein stain and quantified against a standard curve.
# (§1) Figure 2 HD5 binding to HAdV. A) HD5 binding to a representative defensin-sensitive serotype (HAdV-5) was quantified by an equilibrium-binding assay. Data are the mean of the number of HD5 molecules bound per virion at the indicated HD5 concentrations from at least three independent experiments ± SD. Binding curves were fitted using Prism software. B) Binding of HD5 to additional defensin-sensitive (HAdV-7p) and resistant (HAdV-19c, -25p, -51p) serotypes expressed as a percent of HD5 bound to HAdV-5. Data are the mean of two or three independent experiments ± SD.
# To measure HD5 binding to HAdV-5 and -51, HD5 was serially diluted in PBS and mixed with 5 µg purified virus. After 1 h incubation on ice, one half of each sample was separated by ultracentrifugation [209,000×g (avg.) for 2 hrs at 4°C] on a discontinuous gradient consisting of 300 µl of 30% nycodenz and 200 µl of 80% nycodenz in 50 mM NaCl, 20 mM HEPES pH 7.4 using an SW55ti rotor with adaptors (Beckman Coulter, Inc.). The visible virus band was collected. The other half of each sample was used to make a standard curve for quantification. All samples were boiled in reducing loading buffer and separated using a 16% PAGEgel (Expedeon, Inc., San Diego, CA) or 10–20% Tris-Tricine gel (Bio-Rad, Hercules, CA). The gels were stained with Deep Purple (GE Healthcare) and imaged on a Typhoon Trio. Virus bands were quantified using ImageQuant NT software (GE Healthcare). The amount of HD5 in each sample was normalized to protein V and hexon. The amount of HD5 in the centrifuged samples was then quantified against the standard curve using Prism software. Affinity and stoichiometry were estimated from the average data of at least three independent experiments using Prism software.
# [1] = system: Ad5.F35 capsid (hexon, penton base, fiber); assay: CryoEM difference map analysis of Ad5.F35+HD5; type: binding, human adenovirus; details: 20 µM HD5, 160 µg/ml Ad5.F35, cryoEM difference map, 12 Å resolution
# Experimental: To obtain structural insight into the mechanism of α-defensin-mediated neutralization of HAdV infection, we studied a complex of Ad5.F35 (Ad35F) and HD5 by cryoelectron microscopy (cryoEM). This chimeric virus construct was chosen because of its short fiber and the availability of a cryoEM structure of Ad5.F35 in the absence of defensin for comparison, [31]. […] Ad5.F35 was incubated with a saturating concentration of HD5 (20 µM) then applied to grids and flash frozen for cryoEM. A dataset of 2,611 cryoEM particle images of the Ad5.F35+HD5 complex was collected and processed as performed earlier for Ad5.F35 [31]. The resolution of the icosahedral portion of the Ad5.F35+HD5 reconstruction is estimated as 12 Å by the FSC 0.5 threshold criterion, compared to 6.9 Å for the Ad5.F35 reconstruction. Both cryoEM structures are shown filtered to 12 Å resolution in Figure 4A. The most noticeable difference between the two structures is the presence of more density on top of penton base and around the fiber shaft in the Ad5.F35+HD5 structure. In addition, while the fiber knob is visible in the Ad5.F35 structure, it is only weakly reconstructed in the Ad5.F35+HD5 structure (Figure 4A inset). […]
# HAdV-25p = assay: Virus-defensin binding assay, HAdV-25p; parameters: species or system human adenovirus
# Description: as §1
# We assessed HD5 binding to additional serotypes after incubation with 20 µM HD5 (Figure 2B). The sensitive serotype HAdV-7p bound 69.3±15.9% of the amount of HD5 bound to HAdV-5 in parallel samples; whereas, the corresponding values for the resistant serotypes HAdV-19c, -25p, and -51p were 32.5±7.5%, 3.3±5.8%, and 24.6±12.0%, respectively.
# To measure HD5 binding to HAdV-5 and -51, HD5 was serially diluted in PBS and mixed with 5 µg purified virus. […] The other half of each sample was used to make a standard curve for quantification. […] Virus bands were quantified using ImageQuant NT software (GE Healthcare). […] The amount of HD5 in the centrifuged samples was then quantified against the standard curve using Prism software. […]
molecule,measurement,setting,value
B1,95% confidence interval of HD5 molecules bound per virus particle at saturation,HAdV-5 capsid; 95% confidence interval,1603–3919 HD5 molecules
same,Kd,"HAdV-5 capsid; 95% confidence interval, read-out: 95% confidence interval of KD",2.8 to 26.2 µM
same,level of HD5 binding (in words),HAdV-5 capsid; HAdV-5,specific binding
same,Kd,"HAdV-5 capsid; equilibrium binding, Ad5.eGFP, 1 h on ice in PBS, nycodenz gradient, at least three independent experiments, read-out: KD",~14.5 µM
same,HD5 binding regions on capsid,[1],"HD5 difference density is also found within the central depression of the hexon trimers; also recorded: multiple binding sites for HD5 on the penton complex (penton base and fiber); also recorded: interacts with the exposed surfaces of the three major capsid proteins: hexon, penton base, and fiber; also recorded: extensive binding of HD5 to the fiber"
same,"HD5 bound, percent of HD5 bound to HAdV-5","HAdV-25p; 20 µM HD5, mean of two or three independent experiments ± SD",3.3±5.8%
same,level of HD5 binding (in words),HAdV-25p; HAdV-25p,only a low level of binding
